Experimental data taken from patent US20220233710A1 (NANTONG YICHEN BIOPHARMA, published 2022).

Assays:
Recombinant human IL-6 = biological target: T1, Recombinant human IL-6 (human, UniProt P05231 30-212); assay: ELISA, human IL-6 coated on plate, anti-human Fc-HRP
T1 construct: Bought protein
Description: Recombinant human IL-6 (SinoBiological) (100 ng/well) (PBS buffer, pH7.4) was coated in a 96-well plate, and incubated overnight at 4° C. After blocked with PBST containing 2% skimmed milk powder (0.5% Tween-20 in PBS) at room temperature for 1 hour, followed by being washed for 3 times with PBST, the bispecific molecules (0.04 nM-30 nM) in gradient dilutions were added and incubated at 37° C. for 1 h. After being washed for 3 times with PBST, anti-human Fc-HRP (KPL, 1:2500) secondary antibody diluted by 2% milk/PBST was added and incubated at room temperature for 1 h, followed by being washed for 5 times with PBST. TMB (BioLegend) was used for color development, and readings was performed in Thermal VARIOSKAN FLASH plate reader at 650 nm. Data was analyzed with a log[agonist] vs response (3 parameters) model in “non-linear regression” by Graphpad Prizm software.

recombinant human IL-1β = biological target: T2, recombinant human IL-1β (human, UniProt P01584 117-269); assay: ELISA, IL-1β coated on plate, anti-human Fc-HRP
T2 construct: Bought protein
Description: (§1) Recombinant human IL-1β (Thermo Fisher Scientific), recombinant mouse IL-1β (Sino Bio), recombinant mouse IL-1R (Sino Bio), or recombinant human IL-1R (100 ng/well) (DPBS buffer, pH7.4) was coated in a 96-well plate, and incubated overnight at 4° C. After blocked by PBST (0.5% Tween-20 in PBS) containing 2% skimmed milk powder for 1 hour at room temperature, and being washed with PBST for 3 times, the gradient diluted bispecific molecules (0.006 nM-100 nM) were added and incubated at 37° C. for 1 h. After being washed with PBST for 3 times, anti-human Fc-HRP (KPL; 1:2500) secondary antibody diluted by 2% milk/PBST was added and incubated at room temperature for 1 h, and then washed by PBST for 5 times. QuantaBlu fluorescent peroxide enzyme substrate (Life technologies, Cat. 15169) was used for color development, and reading was performed at 325 nm and 420 nm, or TMB color reagent (Bio Legend) was used for color development, and the reading was performed at 650 nm. Data was analyzed by nonlinear regression using specific binding model in Prizm Graphpad software.

recombinant mouse IL-1β = biological target: T3, recombinant mouse IL-1β (mouse, UniProt P10749 118-269); assay: ELISA, IL-1β coated on plate, anti-human Fc-HRP
T3 construct: Bought protein; also called murine IL-1β
Description: as §1

T1 sequence (P05231 30-212 limits assumed): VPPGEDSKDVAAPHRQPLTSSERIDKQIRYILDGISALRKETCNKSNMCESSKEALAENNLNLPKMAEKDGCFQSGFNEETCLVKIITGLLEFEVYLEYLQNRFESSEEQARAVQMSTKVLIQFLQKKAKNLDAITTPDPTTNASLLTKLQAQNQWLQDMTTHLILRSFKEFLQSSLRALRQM

Row | binding result (Recombinant human IL-6) | binding result (recombinant human IL-1β) | binding result (recombinant mouse IL-1β) | Binder
1 | binds | – | – | aIL-6 antibody (antibody, human IgG1, kappa, N297A, V domains shown) VH: EVQLVESGGGLVQPGGSLRLSCAASGFTFSPFAMSWVRQAPGKGLEWVAKISPGGSWTYYSDTVTGRFTISRDNAKNSLYLQMNSLRAEDTAVYYCARQLWGYYALDIWGQGTTVTVSS VL: EIVLTQSPATLSLSPGERATLSCSASISVSYMYWYQQKPGQAPRLLIYDMSNLASGIPARFSGSGSGTDFTLTISSLEPEDFAVYYCMQWSGYPYTFGGGTKVEIKR
2 | – | binds | binds | aIL-1β-2 antibody (antibody, V domains shown) VH: QVQLQQWGAGLLKPSETLSLTCAVYGGSFSDYYWSWIRQPPGKGLEWIGEIDHSGSTNYNPSLKSRVTISVDTSKNQFSLKLSSVTAADTAVYYCARASPSSGWTLDYWGQGTLVTVSS VL: QSVLTQPPSVSVSPGQTASITCSGDKLGDKFAFWYQQKPGQSPVLVIYLDNKRPSGIPERFSGSNSGNTATLTISGTQALDEADYYCYAWADTYEVFGGGTKVDIKR
3 | binds | – | – | BSI-13 (bispecific antibody, human IgG1, kappa, N297A, aIL-6 antibody fused with IL-1RA by a linker peptide) heavy: not shown light: EIVLTQSPATLSLSPGERATLSCSASISVSYMYWYQQKPGQAPRLLIYDMSNLASGIPARFSGSGSGTDFTLTISSLEPEDFAVYYCMQWSGYPYTFGGGTKVEIKRTVAAPSVFIFPPSDEQLKSGTASVVCLLNNFYPREAKVQWKVDNALQSGNSQESVTEQDSKDSTYSLSSTLTLSKADYEKHKVYACEVTHQGLSSPVTKSFNRGEC
4 | binds | – | – | BSI-16 (bispecific antibody, human IgG1, kappa, aIL-6 antibody fused with IL-1RA by a linker peptide) heavy: not shown light: EIVLTQSPATLSLSPGERATLSCSASISVSYMYWYQQKPGQAPRLLIYDMSNLASGIPARFSGSGSGTDFTLTISSLEPEDFAVYYCMQWSGYPYTFGGGTKVEIKRTVAAPSVFIFPPSDEQLKSGTASVVCLLNNFYPREAKVQWKVDNALQSGNSQESVTEQDSKDSTYSLSSTLTLSKADYEKHKVYACEVTHQGLSSPVTKSFNRGEC
